Source: US20090214662A1 (UNIVERSITY OF MARYLAND BALTIMORE, published 2009)

What was measured:
[1] = target: Lactobacillus brevis ATCC 8287 SlpA surface layer protein (Lactobacillus brevis ATCC 8287) (UniProt Q05044); assay: SPR (BIAcore 3000), Kd of laminin compared with Kd of fibronectin on immobilised SlpA
[2] = target: Lactobacillus brevis ATCC 8287 SlpA surface layer protein (Lactobacillus brevis ATCC 8287) (UniProt Q05044); assay: SPR (BIAcore 3000), SlpA immobilised on CM5 chip, collagen injected, 1:1 Langmuir fit
[3] = target: Lactobacillus brevis ATCC 8287 SlpA surface layer protein (Lactobacillus brevis ATCC 8287) (UniProt Q05044); assay: SPR (BIAcore 3000), SlpA immobilised on CM5 chip, fibronectin injected, 1:1 Langmuir fit
[4] = target: Lactobacillus brevis ATCC 8287 SlpA surface layer protein (Lactobacillus brevis ATCC 8287) (UniProt Q05044); assay: SPR (BIAcore 3000), immobilised SlpA preincubated with 1 mM benzamidine, fibronectin injected, steady-state evaluation
[5] = target: T1, Laminin (basement membrane of Engelbreth-Holm-Swarm mouse sarcoma) (mouse, UniProt P19137 25-3083; P02469 22-1786; P02468 34-1607); assay: SPR (BIAcore 3000), SlpA immobilised on CM5 chip, laminin injected, 1:1 Langmuir fit
T1 construct: mature; Bought from Sigma
Method: (§1) The interaction between SlpA and extracellular matrix components was evaluated by surface plasmon resonance on a BIAcore 3000 instrument. Purified SlpA protein in 5M LiCl was dialyzed against double-distilled water overnight. Monomeric and/or oligomeric protein was separated from self-assembled material by centrifugation at 20,000×g for 20 min. SlpA protein (50 ug/ml in 10 mM Sodium Phosphate pH 7.4) was covalently coupled to CM5 carboxylated dextran chips using N-hydroxysuccinimide (NHS) chemistry. […] Kinetic analysis was carried out at 25° C. in 10 mM HEPES, 150 mM NaCl, 3 mM EDTA, 0.005% surfactant P20, pH 7.4. […] Binding was determined experimentally by comparing the number of RU's observed as a function of time to an activated and blocked flow cell containing no linked protein. […] Data were evaluated using the BIAevaluation 4.1 software. The association and dissociation data were modeled with the BIAevaluation 4.1 software (Pharmacia Biosensor AB). Following subtraction of data from the control flow cell, the binding data produced for the various protein concentrations were fitted simultaneously, assuming the 1:1 Langmuir model.
(§2) The association and dissociation rate constants were estimated from the binding data at different concentrations using the BIAevaluation software and from these values the binding constant was calculated (Table 2).

[6] = target: T1, Laminin (basement membrane of …); assay: SPR (BIAcore 3000), immobilised SlpA preincubated with 1 mM benzamidine, laminin injected, 1:1 Langmuir fit
[7] = target: T2, Fibrinogen (human plasma) (human, UniProt P02671 20-629; P02675 31-491; P02679 27-453, limits assumed); assay: SPR (BIAcore 3000), SlpA immobilised on CM5 chip, fibrinogen injected; Table 2 value
T2 construct: mature; Bought from Calbiochem
T2 sequence (looked up) 1: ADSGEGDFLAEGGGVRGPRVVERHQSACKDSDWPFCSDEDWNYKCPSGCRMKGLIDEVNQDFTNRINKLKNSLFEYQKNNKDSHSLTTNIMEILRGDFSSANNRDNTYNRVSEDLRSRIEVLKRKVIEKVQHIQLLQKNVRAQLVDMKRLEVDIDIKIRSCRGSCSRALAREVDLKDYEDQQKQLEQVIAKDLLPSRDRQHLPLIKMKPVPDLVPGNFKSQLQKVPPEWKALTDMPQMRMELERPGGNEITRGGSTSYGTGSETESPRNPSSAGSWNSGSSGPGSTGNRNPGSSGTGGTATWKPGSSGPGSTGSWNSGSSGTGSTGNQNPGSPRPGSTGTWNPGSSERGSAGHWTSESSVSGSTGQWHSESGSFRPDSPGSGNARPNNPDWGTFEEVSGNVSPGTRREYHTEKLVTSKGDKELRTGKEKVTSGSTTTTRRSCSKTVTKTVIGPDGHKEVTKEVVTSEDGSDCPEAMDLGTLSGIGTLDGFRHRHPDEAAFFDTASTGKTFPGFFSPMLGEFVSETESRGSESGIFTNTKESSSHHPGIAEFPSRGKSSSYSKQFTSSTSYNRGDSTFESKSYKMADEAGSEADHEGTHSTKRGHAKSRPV
T2 sequence (looked up) 2: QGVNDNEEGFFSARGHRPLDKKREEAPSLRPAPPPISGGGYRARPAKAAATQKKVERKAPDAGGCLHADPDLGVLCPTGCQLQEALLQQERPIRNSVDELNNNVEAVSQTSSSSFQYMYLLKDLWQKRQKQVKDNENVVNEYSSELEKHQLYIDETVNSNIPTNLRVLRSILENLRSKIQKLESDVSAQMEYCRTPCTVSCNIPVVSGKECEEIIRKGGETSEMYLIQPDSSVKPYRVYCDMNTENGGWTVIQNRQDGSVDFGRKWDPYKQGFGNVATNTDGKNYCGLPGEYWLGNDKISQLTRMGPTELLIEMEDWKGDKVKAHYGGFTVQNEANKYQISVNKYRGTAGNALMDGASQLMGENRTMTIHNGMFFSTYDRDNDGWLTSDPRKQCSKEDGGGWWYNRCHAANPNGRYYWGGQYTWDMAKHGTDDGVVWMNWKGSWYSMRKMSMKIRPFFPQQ
T2 sequence (looked up) 3: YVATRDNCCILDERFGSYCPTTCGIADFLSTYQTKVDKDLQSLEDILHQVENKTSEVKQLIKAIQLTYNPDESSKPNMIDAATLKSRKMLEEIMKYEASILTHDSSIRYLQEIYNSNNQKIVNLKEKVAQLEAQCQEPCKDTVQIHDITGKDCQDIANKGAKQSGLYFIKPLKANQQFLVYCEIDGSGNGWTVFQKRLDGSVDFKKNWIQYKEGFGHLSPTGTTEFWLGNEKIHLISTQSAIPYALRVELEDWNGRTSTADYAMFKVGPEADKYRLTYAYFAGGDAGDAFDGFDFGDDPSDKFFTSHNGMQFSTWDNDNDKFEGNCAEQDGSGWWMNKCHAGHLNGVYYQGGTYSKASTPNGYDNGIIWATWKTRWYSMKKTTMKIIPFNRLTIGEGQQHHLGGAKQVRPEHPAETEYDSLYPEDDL
Method: as §1, §2

**Q.** For “Laminin (basement membrane of Engelbreth-Holm-Swarm mouse sarcoma), P19137 25-3083; P02469 22-1786; P02468 34-1607”, which fold higher affinity than for fibronectin [1] is on record?
**A.** Its fold higher affinity than for fibronectin is 3 fold.

**Q.** “Collagen (human placenta Type IV) (from UniProt P02462 28-1440; P08572 26-1484)” was tested. Which Kd [2] did it give?
**A.** The Kd was 31.8 µM.

**Q.** What about the koff [2] of the same molecule?
**A.** The koff was 0.0011 s⁻¹.

**Q.** For “Fibronectin (human plasma) (from UniProt P02751 32-2477)”, which Kd [3] is on record?
**A.** The Kd was 0.0898 µM.

**Q.** What about the koff [3] of the same molecule?
**A.** Its koff is 0.00632 s⁻¹.

**Q.** What about the Kd [4] of the same molecule?
**A.** The Kd was 30.1 µM.

B1: Lactobacillus brevis ATCC 8287 SlpA surface layer protein (other, UniProt Q05044 31-465, looked up)
chain: KSYATAGAYSTLKTDAATRNVEATGTNALYTKPGTVKGAKVVASKATMAKLASSKKSADYFRAYGVKTTNRGSVYYRVVTMDGKYRGYVYGGKSDTAFAGGIKSAETTTKADMPARTTGFYLTDTSKNTLWTAPKYTQYKASKVSLYGVAKDTKFTVDQAATKTREGSLYYHVTATNGSGISGWIYAGKGFSTTATGTQVLGGLSTDKSVTATNDNSVKIVYRTTDGTQVGSNTWVTSTDGTKAGSKVSDKAADQTALEAYINANKPSGYTVTNPNAADATYGNTVYATVSQAATSKVALKVSGTPVTTALTTADANDKVAANDTTANGSSVAGSTVYAAGTKLAQLTTDLTGEKGQVVTLTAIDTDLEDATFTGTTTYYSDLGKAYHYTYTYNKDSAASSNASTQFGSNVTGTLTATLVMGKSTATANGTTWFN
notes: mature; Native protein purified from the bacterium; The soluble monomeric and/or oligomeric fraction after dialysis and centrifugation was covalently coupled (NHS chemistry) to a CM5 chip, about 1700 RU; also called S-layer protein; Surface Layer Protein A
**Q.** With B1 as the molecule, how does the Kd [5] read?
**A.** Its Kd is 0.0267 µM.

**Q.** And the koff [5]?
**A.** The koff was 0.0013 s⁻¹.

**Q.** And the Kd [6]?
**A.** The Kd was 0.066 µM.

**Q.** What about the koff [6] of the same molecule?
**A.** Its koff is 0.002 s⁻¹.

**Q.** What about the Kd [7] of the same molecule?
**A.** Its Kd is 26.1 µM.
